Substitutions are numbered along the chain they refer to.
T1: biotinylated hOX40L (R&D Systems, biotinylated in house) (human, UniProt P23510 51-183, biotinylated with Sulfo-NHS-LC-Biotin, sites not stated)
T1 construct: same bought protein as m10, biotinylated; also called biotinylated OX40L
T1 sequence: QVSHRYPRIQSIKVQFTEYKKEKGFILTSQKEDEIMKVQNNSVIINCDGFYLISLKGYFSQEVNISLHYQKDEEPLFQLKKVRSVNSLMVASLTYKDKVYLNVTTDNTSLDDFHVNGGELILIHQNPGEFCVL

T2: full length human OX40L expressed on CHO cells (human, UniProt P23510 1-183)
T2 sequence: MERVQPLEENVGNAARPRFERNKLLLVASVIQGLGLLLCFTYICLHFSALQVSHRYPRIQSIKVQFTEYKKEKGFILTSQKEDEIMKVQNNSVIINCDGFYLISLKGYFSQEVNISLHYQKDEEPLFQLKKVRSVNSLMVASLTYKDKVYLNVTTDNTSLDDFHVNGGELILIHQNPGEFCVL

T3: recombinant human OX40L (extracellular domain, R&D Systems) (human, UniProt P23510 51-183)
T3 sequence: T1 sequence

B1: OX40L046 (VHH, not shown: small tags and cut ends)
VHH: DVQLVESGGGLVQPGGSLRLSCAASRSIGRLDRMGWYRHRPGKPRELVATITGGSSINYGDFVKGRFTISRDNSKNTVYLQMNSLRPEDTAVYYCNFNKYVTSRDTWGQGTLVTVSS
B2: OX40L043 (VHH, not shown: small tags and cut ends)
VHH: B1 VHH with P41T
B3: OX40L041 (VHH, not shown: small tags and cut ends)
VHH: B1 VHH with R40A, P41T, K43E
B4: OX40L048 (VHH, not shown: small tags and cut ends)
VHH: B1 VHH with P41T, K43E, G60A
B5: OX40L047 (VHH, not shown: small tags and cut ends)
VHH: B1 VHH with R40A
B6: OX40L050 (VHH, not shown: small tags and cut ends)
VHH: B1 VHH with P41T, K43E, G60A, F62S
B7: benchmark OX40L blocking mAb (benchmark IgG) (antibody, V domains shown)
VH: EVQLLESGGGLVQPGGSLRLSCAASGFTFNSYAMSWVRQAPGKGLEWVSIISGSGGFTYYADSVKGRFTISRDNSRTTLYLQMNSLRAEDTAVYYCAKDRLVAPGTFDYWGQGALVTVSS
VL: DIQMTQSPSSLSASVGDRVTITCRASQGISSWLAWYQQKPEKAPKSLIYAASSLQSGVPSRFSGSGSGTDFTLTISSLQPEDFATYYCQQYNSYPYTFGQGTKLEIKR
B8: OX40L024 (VHH, not shown: small tags and cut ends)
VHH: EVQLVESGGGLVQPGGSLRLSCAASGRTFSSIYAKGWFRQAPGKEREFVAAISRSGRSTSYADSVKGRFTISRDNAKNTVYLQMNSLRPEDTAVYYCAAVGGATTVTASEWDYWGLGTLVTVSS
B9: OX40L025 (VHH, not shown: small tags and cut ends)
VHH: B8 VHH with A76S
B10: OX40L039 (VHH, not shown: small tags and cut ends)
VHH: B8 VHH with E1D, A76S, L116Q
B11: OX40L027 (VHH, not shown: small tags and cut ends)
VHH: B8 VHH with A76S, L116Q
B12: OX40L026 (VHH, not shown: small tags and cut ends)
VHH: B8 VHH with L116Q
B13: OX40L028 (VHH, not shown: small tags and cut ends)
VHH: B8 VHH with E1D
B14: OX40L075 (VHH, not shown: small tags and cut ends)
VHH: EVQLVESGGGLVQPGGSLRLSCAASGRSFSTYIMGWFRQAPGKEREFVATISRSGITTRSADSVKGRFTISRDNSKNTVYLQMNSLRPEDTAVYYCAAGPYVEQTLGLYQTLGPWDYWGQGTLVTVSS
B15: anti-OX40L benchmark Fab (Fab, V domains shown)
VH: B7 VH
VL: B7 VL
notes: papain digest of benchmark IgG; also called LC001 Fab
B16: OX40L030 (VHH, not shown: small tags and cut ends)
VHH: B1 VHH with P14A, P41T, K43E, R71I, S74A, S84N, R86K, L112Q
B17: OX40L053 (VHH, not shown: small tags and cut ends)
VHH: B1 VHH with P41T, K43E, R71I
B18: OX40L054 (VHH, not shown: small tags and cut ends)
VHH: B1 VHH with P41T, K43E, S74A
B19: OX40L055 (VHH, not shown: small tags and cut ends)
VHH: B1 VHH with P41T, K43E, S84N
B20: OX40L044 (VHH, not shown: small tags and cut ends)
VHH: B1 VHH with R40A, K43E
B21: OX40L049 (VHH, not shown: small tags and cut ends)
VHH: B1 VHH with P41T, K43E, F62S
B22: OX40L045 (VHH, not shown: small tags and cut ends)
VHH: B1 VHH with R40A, P41T
B23: OX40L042 (VHH, not shown: small tags and cut ends)
VHH: B1 VHH with K43E

Each binder was assayed against T1, biotinylated hOX40L (R&D Systems, …) (assay: hOX40L/hOX40 AlphaScreen, assay 2, native).
Experimental: (§1) Next, streptavidin donor beads were added and incubated for an additional 1 hour. Fluorescence was measured by reading plates on the EnVision Multilabel Plate Reader using an excitation wavelength of 680 nm and an emission wavelength of 520 nm.
(§2) In the TSA assay, Nanobodies were diluted to a concentration of 0.2 mg/ml and melting temperature (Tm) was determined at different pH by stepwise increase in temperature in presence of Sypro Orange, a dye that binds to […] residues that become exposed upon unfolding of the protein, using the Lightcycler (Roche) for detection. […] In SEC analysis, the Nanobodies were analyzed on a Phenomenex matrix to allow detection of multimers, aggregates or ‘stickyness’.
Binder B1 has an IC50 of 0.256 nM.
With B2 the IC50 was 0.134 nM.
B3 gave an IC50 of 0.22 nM.
In the case of B4, the IC50 is reported as 0.314 nM.
In the case of B5, the IC50 is reported as 0.735 nM.
B6 showed an IC50 of 0.145 nM.

These binders were tested against T2, full length human OX40L expressed on … (assay: cell-based or functional assay).
With B7 the “IC50, T-cell activation assay, donor 10, +10% FBS” value was 203 nM, the “IC50, T-cell activation assay, donor 10, +10% HS” value was 161 nM and the “IC50, T-cell activation assay, donor 11, +10% FBS” value was 61.2 nM. The “IC50, T-cell activation assay, donor 11, +10% HS” value was 30.2 nM, the “IC50, T-cell activation assay, donor 12, +10% FBS” value was 22.1 nM and the “IC50, T-cell activation assay, donor 12, +10% HS” value was 42.9 nM. The “IC50, T-cell activation assay, donor 13, +10% FBS” value was 84.4 nM and the “IC50, T-cell activation assay, donor 13, +10% HS” value was 120 nM.

What follows are binders tested against T1, biotinylated hOX40L (R&D Systems, …) (assay: hOX40L/hOX40 AlphaScreen, native sample).
Experimental: as §1, §2
B8 gave an IC50 of 0.07 nM.
In the case of B9, the IC50 is reported as 0.06 nM.
For B10, the IC50 was 0.05 nM.
In the case of B11, the IC50 is reported as 0.07 nM.
With B12 the IC50 was 0.05 nM.
B13 was tested, and the IC50 was 0.07 nM.
B14 was tested, and the IC50 was 0.31 nM.

What follows are binders tested against T1, biotinylated hOX40L (R&D Systems, …) (assay: hOX40L/hOX40 AlphaScreen, sample heated 1 min at Tm+10 C).
Experimental: as §1, §2
B8 was tested, and the IC50 was 0.07 nM.
Binder B9 has an IC50 of 0.05 nM.
Work on B10 yielded an IC50 of 0.05 nM.
In the case of B11, the IC50 is reported as 0.07 nM.
Work on B12 yielded an IC50 of 0.06 nM.
Binder B13 has an IC50 of 0.07 nM.
Work on B14 yielded an IC50 of 1.9 nM.

Each binder was assayed against T3, recombinant human OX40L (extracellular …) (assay: cell-based or functional assay).
B8 was tested, and the “IC50, T cell assay with rec. hOX40L” value was 1.54 nM.
For B9, the “IC50, T cell assay with rec. hOX40L” value was 1.15 nM.
For B10, the “IC50, T cell assay with rec. hOX40L” value was 1.6 nM.
With B11 the “IC50, T cell assay with rec. hOX40L” value was 1.43 nM.
B12 was tested, and the “IC50, T cell assay with rec. hOX40L” value was 2.46 nM.
In the case of B13, the “IC50, T cell assay with rec. hOX40L” value is reported as 2.3 nM.

Target: T2, full length human OX40L expressed on …
Assay: cell-based or functional assay
Remark: another data set of the same source
With B7 the “IC50, T-cell activation assay, donor 1” value was 69.1 nM, the “IC50, T-cell activation assay, donor 2” value was 57.2 nM and the “IC50, T-cell activation assay, donor 3” value was 35.1 nM. The “IC50, T-cell activation assay, donor 4” value was 5.6 nM.
B15 was tested, and the “IC50, T-cell activation assay, donor 1” value was 80.2 nM, the “IC50, T-cell activation assay, donor 2” value was 131 nM and the “IC50, T-cell activation assay, donor 3” value was 57.6 nM. For the same binder, the “IC50, T-cell activation assay, donor 4” value was 85.2 nM.

Each binder was assayed against T1, biotinylated hOX40L (R&D Systems, …) (assay: hOX40L/hOX40 AlphaScreen, assay 3, native).
Experimental: as §1, §2
For B16, the IC50 was 0.143 nM.
Work on B17 yielded an IC50 of 0.118 nM.
Work on B18 yielded an IC50 of 0.079 nM.
In the case of B19, the IC50 is reported as 0.091 nM.

These binders were tested against T1, biotinylated hOX40L (R&D Systems, …) (assay: hOX40L/hOX40 AlphaScreen, assay 1, native).
Experimental: Next, streptavidin donor beads were added and incubated for an additional 1 hour. Fluorescence was measured by reading plates on the EnVision Multilabel Plate Reader using an excitation wavelength of 680 nm and an emission wavelength of 520 nm. […]
In the case of B16, the IC50 is reported as 0.076 nM.
B1 gave an IC50 of 0.084 nM.
B20 gave an IC50 of 0.065 nM.
Work on B2 yielded an IC50 of 0.101 nM.
B21 showed an IC50 of 0.035 nM.
Binder B22 has an IC50 of 0.152 nM.
B3 was tested, and the IC50 was 0.127 nM.
Binder B4 has an IC50 of 0.093 nM.
Work on B5 yielded an IC50 of 0.269 nM.
B6 was tested, and the IC50 was 0.046 nM.
Binder B23 has an IC50 of 0.057 nM.

Target: T3, recombinant human OX40L (extracellular …)
Assay: cell-based or functional assay
Remark: another data set of the same source
B16 was tested, and the “IC50, T cell assay with rec. hOX40L” value was 11 nM.
With B1 the “IC50, T cell assay with rec. hOX40L” value was 57 nM.
With B20 the “IC50, T cell assay with rec. hOX40L” value was 76 nM.
For B2, the “IC50, T cell assay with rec. hOX40L” value was 29 nM.
B21 was tested, and the “IC50, T cell assay with rec. hOX40L” value was 12 nM.
For B22, the “IC50, T cell assay with rec. hOX40L” value was 133 nM.
For B3, the “IC50, T cell assay with rec. hOX40L” value was 64 nM.
For B4, the “IC50, T cell assay with rec. hOX40L” value was 32 nM.
B5 was tested, and the “IC50, T cell assay with rec. hOX40L” value was 126 nM.
In the case of B6, the “IC50, T cell assay with rec. hOX40L” value is reported as 43 nM.
In the case of B23, the “IC50, T cell assay with rec. hOX40L” value is reported as 18 nM.

What follows are binders tested against T1, biotinylated hOX40L (R&D Systems, …) (assay: hOX40L/hOX40 AlphaScreen, assay 2, heated at Tm+10 C).
Experimental: as §1, §2
With B1 the IC50 was 0.221 nM.
B2 showed an IC50 of 0.156 nM.
B3 gave an IC50 of 0.262 nM.
Work on B4 yielded an IC50 of 0.314 nM.
Work on B5 yielded an IC50 of 0.557 nM.
For B6, the IC50 was 0.164 nM.

The binders below were run against T1, biotinylated hOX40L (R&D Systems, …) (assay: AlphaScreen, 120 pM biotinylated hOX40L + 0.2 nM hOX40/Fc).
Experimental: as §1
With B15 the IC50 was 1.97 nM.

The binders below were run against T2, full length human OX40L expressed on … (assay: competition FACS, 3.1 nM hOX40/Fc on hOX40L expressing cells).
B15 gave an IC50 of 217 nM.

Target: T2, full length human OX40L expressed on …
Assay: cell-based or functional assay
Remark: another data set of the same source
In the case of B15, the “IC50, IL4 production, T-cell activation assay, donor 1” value is reported as 80 nM, the “IC50, IL4 production, T-cell activation assay, donor 2” value is reported as 131 nM and the “IC50, IL4 production, T-cell activation assay, donor 3” value is reported as 58 nM. The “IC50, IL4 production, T-cell activation assay, donor 4” value was 85 nM.

The binders below were run against T1, biotinylated hOX40L (R&D Systems, …) (assay: hOX40L/hOX40 AlphaScreen, assay 3, heated at Tm+10 C).
Experimental: as §1, §2
Work on B16 yielded an IC50 of 0.143 nM.
Binder B17 has an IC50 of 0.126 nM.
B18 showed an IC50 of 0.094 nM.
B19 gave an IC50 of 0.106 nM.

From patent US20150218281A1 (Ablynx, published 2015)
